Source: the DeepSol protein solubility set

Assay: soluble on expression in E. coli; label from the status in PepcDB or PDB records

| Sequence | soluble on expression in E. coli |
| --- | --- |
| MSLSNAMTSKLERFIDQGVGRVPADIVLKGGCFFDLVTGELVQSDIAIGADRIVGTSGNYEGETEIDISGRIVVPGFIDTHLHIESSLVTPHEFDRCVLPYGVTTAICDPHEIANVLGAAGIEFFLESALETIMDIRVQLSSCVPATHLETSGADLPIESLLPYRHHPKVIGLAEFMNFPGVIHKDPICMAKLDAFQGGHIDGHAPLLSGNDLNGYLAAGIRTEHECTTASEALEKIRKGVHILVREGSVSKDLAALMPIITERLSPFLALCTDDRNPLDIAEQGHLDHMIRTAIASRVEPLAIYRAASISAARAFGLKDRGLVAPGWRADLVVLDSLENCRADMVFSAGRRVTDALFSSRRPVAPIGLDSVKARPVNAAHFGVPVAEGETPVIGVIPGKIITEHRRYRLPVRGNEAAVDLANDIIKVAVIERHGKNGNHANGFVQGFGLKKGAIASTVGHDSHNICVVGVSEDDMARAANRLSEIKGGFVVVEDGKVTGEIALPIAGLMSLEPYETVRDTLHQLRKAAFALGATLEEPFLQLAFLPLPVIPHLKISDRGMVDVDKFALIGEGHHHHHH | soluble |
| MDSVVSDVSDLVEPDEELKAWQTDRTRAPIATKIVVAGGFGAGKTTLVTAVSEITPLQTEALMTQASEDTDDLTGTPDKLTTTVAMDFGRITLDDDLVLYLFGTPGQQRFWFMWDDLVRGAIGAVVLADTRRLSDCFPALDYFESCGLPYVVAVNHFDGSEKFEPEDVREALTVPAHIPVMIMDARRRISVIETLLALVGHALEVSPELEHHHHHH | soluble |
| MAKSYDYQSAFDIIGPVMMGPSSSHTAGAVKIGNSARAILGDIPKNIEIHYYESFAQTHQGHGTDVAIVGGAMGYSTFDNRIKSSLEIAADDGIKIDIIEEEGDSIGQHPNCAYIKSSRNDGRYIEIIGISIGGGTIKIKGIHINGLEVDLNHGLPILVVDGNMTKAQVNHFINDINDMKLDCKDEFIKIDEDKCLVVIPLNKAISESTLNTIKEKYSDVNVSYIN | not soluble |
| MGSDKIHHHHHHANDETIEINYGESISLSAVAGKTTRTGSEATTTNSIRNFHVLAFTQGATYMDCDVRKQGNVWSYGDTKFWPETDVDFYSYSPMNTQNGNVSIKVEGDKKIANYNVPGDEDLLYALNQAEKKNEHEGERPVMVNFRHALSQIVFRIRNTSSNLTVFVDAVKVEGIEKQGTFFWPTLSTTTQWQGTEKDTETDNSWGRWNIVYNKENAKQNNYAAEIIPIMEQGFVGSIDASVRDLTVKTDNGYKGLLLLPQTLNPWITKTGGTDENPEYKITGTARVLVKCKLVDTVSNVQLWPNTNSHEETTWVGVSLVGEPKDINGKTEQVWKQGKRYVYTLIFGEGGGFNPDPDPENPDPEPVLVPITFAVTVDDFVEYPQDLDASVPNSNSGQ | not soluble |
| MSAKHPVIAVTGSSGAGTTTTSLAFRKIFAQLNLHAAEVEGDSFHRYTRPEMDMAIRKARDAGRHISYFGPEANDFSLLEHTFIEYGQTGKGQSRKYLHTYDEAVPWNQVPGTFTPWQPLPEPTDVLFYEGLHGGVVTPQHDVARHVDLLVGVVPIVNLEWIQKLIRDTSERGHSREAVMDSVVRSMDDYINYITPQFSRTHINFQRVPTVDTSNPFAAKGIPSLDESFVVIHFRNLEGIDFPWLLAMLQGSFISHINTLVVPGGKMGLAMELIMLPLVQRLMEGKKIE | not soluble |
| TDKVTDADLETLRKLQEEFATELAISRGRVDALEARSADIQAQQFSPNVVLGGQTIFGLAGGFGGNRPGDGEANTIFTYLTQLQLASSFTGKDRFRVGLISGNAANNSFENLQAFNTNMARLAWQGNYDNQVSINSVEYRVAGLGDRVVFTFKPVGFSLGSVLSPNSIYADAGQGAISAFAGSTPILRIGNLDAGLGFDWLLSDEIRLQFAYGTRGSSDSNQGLFGADHSALGLQFLYKPTPSLITGLAYINAYSSDGHLDTGTGSSNADTSGGINEPSQIHALNASMRWQLTNKLVLGAWGGVMVTDSLKSDAVVLSSTYTVSLGIYDPFGRKGDLFGFLYGLPPKLNNGVLIPTADTGNSTHYEVFYRYLVNDNIAITPGFFLVTDPGHISSNNDIFIGAIRTTFNF | not soluble |
| LPGRFQRSDVERVVTACSAALGLSSACLRALLVMVHATRPSDWRDEQRDAVCFMQQVQVAARLGVTPRALRYQEARLERLGLLRRNVAADGSRGRFGGGDLIQGISFAPLIEAFPSLLRIAEQLEAAERERQVLRRRVSAARRILSQTLTRLAALDKAVPGLTEVLASMPRRYDALDGSELGALLQRVDKAAREALRHLEVQQVSSGVPENSFRPHIQDTTQENPVCSGSSAIERTARKRADSIKPDAAPDGTASCYEKKHGLADRGFKPRYLDTFTPTQLYEAASPDMQMYLDAGRRSDSTLTAHDFIQAAIAILPALGVNASAWDEAADTMGDLPAALCVLVLDANRYRPVNPVWSPGGMLRAMTARARSGGLNLHGSLIALQRRAG | not soluble |
| MVSENSDATNVETTALALKILVAGGFGVGKTTMVGAVSEIRPLRTEELLSEAGQSVDDTDGVDQKVTTTVAMDFGRITIRSGLSLYLFGTPGQDRFWFLWDELSQGALGAVVLADTRRLEDCFPAVDYFEHRHIPFVVAVNCFAGARTYGAHDVSRALDLDQGTPVVLCDARDRDSGKEVLIRLVEYAGRMHTARLLDSVGLEHHHHHH | not soluble |
| SNAMITKAIYPGTFDPITNGHLDLVTRASAMFSHVILAIADSSSKKPMFTLDERVALAKKVTAPLKNVEVLGFSELMAEFAKKHNANILVRGLRSVSDFEYEWQLANMNRHLMPKLESVFLIPSEKWSFISSSLVKEVARHGGDITPFLPKPVTKALLAKLA | soluble |
| MAPVQGSYDYDLIVIGGGSAGLACAKEAVLNGARVACLDFVKPTPTLGTKWGVGGTCVNVGCIPKKLMHQASLLGEAVHEAAAYGWNVDDKIKPDWHKLVQSVQNHIKSVNWVTRVDLRDKKVEYINGLGSFVDSHTLLAKLKSGERTITAQTFVIAVGGRPRYPDIPGAVEYGITSDDLFSLDREPGKTLVVGAGYIGLECAGFLKGLGYEPTVMVRSIVLRGFDQQMAELVAASMEERGIPFLRKTVPLSVEKQDDGKLLVKYKNVETGEESEDVYDTVLWAIGRKGLVDDLNLPNAGVTVQKDKIPVDSQEATNVANIYAVGDIIYGKPELTPVAVLAGRLLARRLYGGSTQRMDYKDVATTVFTPLEYACVGLSEEDAVKQFGADEIEVFHGYYKPTEFFIPQKSVRYCYLKAVAERHGDQRVYGLHYIGPVAGEVIQGFAAALKSGLTINTLINTVGIHPTTAEEFTRLAITKRSGLDPTPAS | soluble |
| SLKEVLDEKFPSNNKLEVGLGRDISGDPITVPLNEMPHLLVAGSTGSGKSVCINGIITSILLNAKPHEVKLMLIDPKMVELNVYNGIPHLLIPVVTNPHKAAQALEKIVAEMERRYDLFQHSSTRNIKGYNELIRKQNQELDEKQPELPYIVVIVDELADLMMVAGKEVENAIQRITQMARAAGIHLIVATQRPSV | not soluble |
| MHEMRELAQGSLKEMRTLIWQLRPAGLEKGLLPALKQYGESLGLKIREQVTGVRDLPRVVEEALWRIGQEALNNVSKHANVREATIYFKVTEKNVSLEIVDQGNGFVEKNIKEKKSLGMTTMRERVELVGGTIKIVSDKKRTSVKVNVPL | not soluble |
| MAKRLSKQQLAKAIANTLETPPQPKAGRRRNRRRQRSAVQQLQPTQAGISMAASAQGAMVRIRNPAVSSSRGGITVLTHSELSAEIGVTDSIVVSSELVMPYTVGTWLRGVAANWSKYSWLSVRYTYIPSCPSSTAGSIHMGFQYDMADTVPVSVNQLSNLRGYVSGQVWSGSAGLCFINGTRCSDTSTAISTTLDVSKLGKKWYPYKTSADYATAVGVDVNIATPLVPARLVIALLDGSSSTAVAAGRIYCTYTIQMIEPTASALNN | soluble |
| SNANCKKIGEDSKIIIRQITDNDLELLMAWRSNPLIYKFFYIQKEPLKWEEHYSWWMSRENRVDWIILLRENNTIRKVGSVNVSQLNTDNPEIGILIGEFFLWGKHIGRHSVSLVLKWLKNIGYKKAHARILENNIRSIKLFESLGFKKTKKGRENEWIYEVNL | soluble |
| MGSDKIHHHHHHMKFIVKTQMDMEAVAGNYIREVLPNAKVTIAPEGYPGIVIVESEEENALQKILEVPEVEKVYPVLIEVPANLDSIKSAADEIVKYIKEGETFAVRTKKRGKRDFSSVDVNVVLGARIKDLTNAEVNLSYPDKVVQVEIIGEKAYISVIPGKEYTKWKKYPKDKPDCRKLFRKLTIVQMPYWGDYKTARAFGEKIGRAAQAFEVKELIIAPKEKMNAYELMAFIRGVKEGQESRYQIQKEAYPWEVEKVPVTVWDLYQVIRDKRRNRRLIIITDPKGPTLNEVKDKLARDMYYAKEIIIFIGSREGIPIGLFRFADYVVDLAPYMTFATEHGIPATLVALWTIYEEELRRRGEIND | not soluble |
| MEKREFPVSDRIFPEVSIPYGDKSTKAMQITCACCGAVAYFPHQTGVNRKPPIAATQHFQNKGWVVGGNPRKDFCPIHAAPAKRKGQKAMVDTVATIADKPREMSREDRRIINDKLDEVYAKDAYKSPWTDSAVAKDLGVPRDWVAQVRDQFFGPAGSNPLYDEFLKETKLVEGAFLACEEATARAEKAAADQRRAHGDLCKAMDSYRVLARKVEREISR | not soluble |
| MSLSETSEHPVDGDELLVRTVLSNQALKRIFTHRTDSMTECYQVEKTFLQSEQSLLIGHQLHPTPKSRQGIDEDEELLFTPERKGSFQLHYFRAACELVDEKSALADSASELIKHDLLHDPNVQDSFKASYCQADDYVLLPVHPLQARKLLGKKEIADLIQAGKLSYLGPQGRAFYPTSSLRTVYHPEAEYMYKFSIPVKITNSLRVNKRKELARGVEVSELLKNGLYDQLKAEHPAFNIVQDPAYITLSLDSEESGLETVIRENPFRQGGEERTTLLAALCQDSIQGNSHLTNLMVELAKQKKISVTEASKWWFSRYLNVSLRPLYWLYATHGIALEAHQQNSIIKLDAEGLPSLFYYRDNQGYYFMQSKAETLKQFVPTLNEQSDTICSDAVAEERFRYYVFFNHLFGLVNAFGTNRLIDEEQLLHILREELTLLRQQFGDPTNLVNSLLHEEMLPCKANLLTRIHDMDELEGSLATQSVYVPVPNPLVVMAGELHEGHHHHHH | soluble |
| MEIVRTKQFSLKPMDSEEAVLQMNLLGHSFYVYTDAETNGTNIVYSRKDGKYGLIETNLEHHHHHH | not soluble |
| MAHHHHHHMAVSSARESVTDLLSGREDVRTVSSSTMAQESTTIKTGELGEDGGGDGVISDRSNVLARVFEELLDAEVSMNPAKLREASRAGIPSLYRSTVYRYLLGITFVDHSREMSLERMQEKDFEQLLTAFGRIVASDGTGQRPSVKGRIMQPLASPRLHDSETIPLITRDESQFANGYRCSDRSFSVGYAAWIKFRANLRYLPRFVGNPERRQRMECAWQALHVTSSGATPDEVENLFELALVFESVHGTARDIYFSTSSLYYLLTHHGNVLQNAQCLQRMCGTFLMLFRATNFDLYRHFVAESVTAVEWLPGMLKTLLAGRLHEEDLLRLWDVYLADALEYLGFPLHPYVCLAILEEMTEVLLECEKSGIIERLRHLPRIEAGSIIQKAISLKESVFSKDLL | not soluble |
| MLLRILIADDEPLARERLRVLLQAQMQHLEVVAEAENGEQVLHDCQRLNPDLVLMDIAMPGIDGLETARYLRYLPACPAVVFCTAYGDHALSAFDVEAIDYLMKPVRAERLHAALKRVQTFVAGRLREPQTSCDETPRTHLCVRIRGGLRLIPLDQVRYLQADEKYVVICHEQGEDLIEESLKSLEKEFSDRFVRIHRNCLIARAELTELRRCSDGQVQAVLRNVVTPLAVSRRCVPLLCDQLRLSAVLTGRWLEHHHHHH | not soluble |
| PEITGQVSLPPGKRTNLRKTGSERIAHGMRVKFNPLPLALLLDSSLEGEFDLVQRIIYEVDDPSLPNDEGITALHNAVCAGHTEIVKFLVQFGVNVNAADSDGWTPLHCAASCNNVQVCKFLVESGAAVFAMTYSDMQTAADKCEEMEEGYTQCSQFLYGVQEKMGIMNKGVIYALWDYEPQNDDELPMKEGDCMTIIHREDEDEIEWWWARLNDKEGYVPRNLLGLYPRIKPRQRSLA | soluble |
